Measurements reported in US20080305099.

Experiments:
[1] = tested on: ACTH (adrenocorticotropic hormone)
Aβ42 = Aβ42 (UniProt P05067)
synthetic Aβ40 = synthetic Aβ40 (UniProt P05067)

For “recombinant GCP-II protein purified from insect cells (Sf21)”, the “MALDI-TOF molecular weight after reaction with GCP-II at 37° C. for 15 hours” value (from here on “MALDI-TOF molecular weight”) [1] was “characteristically not degraded by GCP-II”, the “MALDI-TOF molecular weight” value (amylin) was “amylin showed two peaks at 1500 and 2000 after being reacted with GCP-II” and the “endogenous Aβ42 remaining (ELISA) in the medium of swAPP stable HEK293 colony #2 with 0, 0.5, 2.5 and 10 of rGCP-II” value (Aβ42) was “the level of endogenous Aβ42 was decreased”. For the same substance, the “MALDI-TOF molecular weight” value (insulin β-chain) was “characteristically not degraded by GCP-II”, the “Western blot (anti-Aβ antibody 6E10) of Aβ matured for 7 days after 20 hours with rGCP-II” value (Aβ (length not stated)) was “Aβ in oligomer form (multimer) was reduced faster than Aβ monomer” and the “MALDI-TOF of Aβ40 reacted with GCP-II protein at more than 25 ng/µL” value (synthetic Aβ40) was “only one peak was observed at 2,167 which corresponds to Aβ18”. The “MALDI-TOF of Aβ40 reacted with GCP-II protein for 20 hours” value (synthetic Aβ40) was “two new peaks were observed at 3915 and 2662 in Aβ reacted with 0.5 ng/µM of GCP-II” and the “MALDI-TOF of Aβ reacted with GCP-II inactivated by heating (boiled rGCP-II)” value (synthetic Aβ40) was “Aβ was not degraded by the inactivated GCP-II”.
